Assay results: US20110076693

B1: Flag-Plk2 (protein)
chain: MELLRTITYQPAASTKMCEQALGKGCGADSKKKRPPQPPEESQPPQSQAQVPPAAPHHHHHHSHSGPEISRIIVDPTTGKRYCRGKVLGKGGFAKCYEMTDLTNNKVYAAKIIPHSRVAKPHQREKIDKEIELHRILHHKHVVQFYHYFEDKENIYILLEYCSRRSMAHILKARKVLTEPEVRYYLRQIVSGLKYLHEQEILHRDLKLGNFFINEAMELKVGDFGLAARLEPLEHRRRTICGTPNYLSPEVLNKQGHGCESDIWALGCVMYTMLLGRPPFETTNLKETYRCIREARYTMPSSLLAPAKHLIASMLSKNPEDRPSLDDIIRHDFFLQGFTPDRLSSSCCHTVPDFHLSSPAKNFFKKAAAALFGGKKDKARYIDTHNRVSKEDEDIYKLRHDLKKTSITQQPSKHRTDEELQPPTTTVARSGTPAVENKQQIGDAIRMIVRGTLGSCSSSSECLEDSTMGSVADTVARVLRGCLENMPEADCIPKEQLSTSFQWVTKWVDYSNKYGFGYQLSDHTVGVLFNNGAHMSLLPDKKTVHYYAELGQCSVFPATDAPEQFISQVTVLKYFSHYMEENLMDGGDLPSVTDIRRPRLYLLQWLKSDKALMMLFNDGTFQVNFYHDHTKIIICSQNEEYLLTYINEDRISTTFRLTTLLMSGCSSELKNRMEYALNMLLQRCN
B2: Flag-Plk3 (protein)
chain: MEPAAGFLSPRPFQRAAAAPAPPAGPGPPPSALRGPELEMLAGLPTSDPGRLITDPRSGRTYLKGRLLGKGGFARCYEATDTETGSAYAVKVIPQSRVAKPHQREKILNEIELHRDLQHRHIVRFSHHFEDADNIYIFLELCSRKSLAHIWKARHTLLEPEVRYYLRQILSGLKYLHQRGILHRDLKLGNFFITENMELKVGDFGLAARLEPPEQRKKTICGTPNYVAPEVLLRQGHGPEADVWSLGCVMYTLLCGSPPFETADLKETYRCIKQVHYTLPASLSLPARQLLAAILRASPRDRPSIDQILRHDFFTKGYTPDRLPISSCVTVPDLTPPNPARSLFAKVTKSLFGRKKKSKNHAQERDEVSGLVSGLMRTSVGHQDARPEAPAASGPAPVSLVETAPEDSSPRGTLASSGDGFEEGLTVATVVESALCALRNCIAFMPPAEQNPAPLAQPEPLVWVSKWVDYSNKFGFGYQLSSRRVAVLFNDGTHMALSANRKTVHYNPTSTKHFSFSVGAVPRALQPQLGILRYFASYMEQHLMKGGDLPSVEEVEVPAPPLLLQWVKTDQALLMLFSDGTVQVNFYGDHTKLILSGWEPLLVTFVARNRSACTYLASHLRQLGCSPDLRQRLRYALRLLRDRSPA

Target: GST-PBIPtide-A6 [GST: P08515]

Protein | in vitro kinase assay of Flag immunoprecipitates, 32P incorporated into GST-PBIPtide-A6
B1 | Plk1, but not Plk2 or Plk3, phosphorylates and binds to the T78 motif of PBIPtides
B2 | Plk1, but not Plk2 or Plk3, phosphorylates and binds to the T78 motif of PBIPtides
